Data as given in paper doi:10.1101/2024.10.21.619360.

Columns and labels:
[1] = biological target: bovine complement factor I (bovine (B. taurus)); experiment: BLI; biotinylated bovine FI (150 nM) on streptavidin biosensors, PmSLP-1 as analyte at 0-1600 nM, Octet RED96, 30°C, PBS pH 7.4 with 0.01% Tween 20; steady-state analysis, one-site fit
[2] = biological target: bovine complement factor I; experiment: biolayer interferometry; details: n=3; parent: 27 ± 6
[3] = biological target: bovine complement factor I; experiment: BLI; details: 1600 nM PmSLP-1 mutant; biotinylated bovine FI on streptavidin sensors; 3 independent replicates; read off a plot
[4] = biological target: bovine complement factor I (bovine (B. taurus)); experiment: cryo-EM structure; PmSLP-1 and FI mixed 5:1, complex isolated on Superdex Increase 200 in PBS pH 7.4, 0.25 mg/mL on gold grids, 40° tilt; dimer of the complex, protomer refined to 3.5 Å

Work on “PmSLP-1^15 (PmSLP-1^15-318), surface lipoprotein of Pasteurella multocida strain 36950 (domain or fragment)” yielded a Kd [1] of 27 nM.

“PmSLP-1^15 (PmSLP-1^15-318), surface lipoprotein of Pasteurella multocida strain 36950 D121A” gave a Kd [2] of 117 nM and a response [3] of 0.19 AU.

Substance “PmSLP-1^15 (PmSLP-1^15-318), surface lipoprotein of Pasteurella multocida strain 36950 D124R” has a Kd [2] of 53 nM and a response [3] of 0.24 AU.

With “PmSLP-1^15 (PmSLP-1^15-318), surface lipoprotein of Pasteurella multocida strain 36950 D210A” the Kd [2] was 272 nM and the response [3] was 0.14 AU.

“PmSLP-1^15 (PmSLP-1^15-318), surface lipoprotein of Pasteurella multocida strain 36950 E132R” was tested, and the Kd [2] was 28 nM and the response [3] was 0.22 AU.

For “PmSLP-1^15 (PmSLP-1^15-318), surface lipoprotein of Pasteurella multocida strain 36950 E240A”, the response [3] was -0.0015 AU.

“PmSLP-1^15 (PmSLP-1^15-318), surface lipoprotein of Pasteurella multocida strain 36950 I133D” showed a Kd [2] of 43 nM and a response [3] of 0.24 AU.

Substance “PmSLP-1^15 (PmSLP-1^15-318), surface lipoprotein of Pasteurella multocida strain 36950 K236E” has a Kd [2] of 33 nM and a response [3] of 0.24 AU.

Substance “PmSLP-1^15 (PmSLP-1^15-318), surface lipoprotein of Pasteurella multocida strain 36950 L127D” has a Kd [2] of 85 nM and a response [3] of 0.23 AU.

For “PmSLP-1^15 (PmSLP-1^15-318), surface lipoprotein of Pasteurella multocida strain 36950 R167A”, the Kd [2] was 107 nM and the response [3] was 0.18 AU.

For “PmSLP-1^95 (PmSLP-1^95-318 SERp) (domain or fragment)”, the Kd [1] was 39 nM.

Work on bovine complement factor I (enzyme) yielded a stoichiometry N [4] of 2.
